Assay results from paper PMC4676284 (mBio, 2015).

B1: Bartonella grahamii strain as4aup VirB8, soluble C-terminal periplasmic domain (domain or fragment)
chain: ALTPLKTVEPFVIRVDNSTGIIDTVSALKESPNDYDEAITRYFASQYVRAREGFQASEAENNFRLVSLLSSPKEQNRFGKWYAGNNPESPQNIYHNMIATVTIKSISFISKDLIQVRYYKTVRDFNEKENISHWISILNFSYVNAHISTSDRLINPLGFQVSEYRSDPEVIK
B2: Bartonella birtlesii strain LL-WM9 TrwG, soluble C-terminal periplasmic domain (domain or fragment)
chain: QPAPTPLVLRVDNTTGAVDVISVMREHETSYGEVVDRYWLNQYVLNRETYDYDTIQLNYDTTALLSTAAVQQEFYKIYEGEDARDKVLSNKARITVKVRSIQPNGRGQATVRFTTQQHDSTGAVGVKQHQIATIGYTYVGAPMKSSDRLLNPLGFQVTSYRTDPEILLNN
B3: Bartonella grahamii strain as4aup TrwG, soluble C-terminal periplasmic domain (domain or fragment)
chain: QPAPTPLVLRVDNTTGAVDVISVMREHETSYGEVVDRYWLNQYVLNRENYDYDTIQLNYDTTALLSAASVQQEYYKIYDGENARDKVLSNKARITVKVRSIQLNGLGQATVRFTTQQLDSSGATTGPKQHQIATIGYTYVGAPMKSSDRLLNPLGFQITSYRSDPEILLND

Molecular target: the molecule itself
Test: crystal structure

Protein	stoichiometry N
B1	2
B2	2
B3	2
